Source: article PMC9221696

B1: wild-type Fas receptor (Fas/CD95) tagged with mCerulean3 or mVenus [human] / itself (parent)
chain: QVTDINSKGLELRKTVTTVETQNLEGLHHDGQFCHKPCPPGERKARDCTVNGDEPDCVPCQEGKEYTDKAHFSSKCRRCRLCDEGHGLEVEINCTRTQNTKCRCKPNFFCNSTVCEHCDPCTKCEHGIIKECTLTSNTKCKEEGSRSNLGWLCLLLLPIPLIVWVKRKEVQKTCRKHRKENQGSHESPTLNPETVAINLSDVDLSKYITTIAGVMTLSQVKGFVRKNGVNEAKIDEIKNDNVQDTAEQKVQLLRNWHQLHGKKEAYDTLIKDLKKANLCTLAEKIQTIILKDITSDSENSNFRNEIQSLV
B2: wild-type Fas receptor (Fas/CD95) tagged with mCerulean3 or mVenus [human] / Cerulean3-tagged FADD containing only the death domain (FADD DD) [human] (parent)
chain 1: LCAAFNVICDNVGKDWRRLARQLKVSDTKIDSIEDRYPRNLTERVRESLRIWKNTEKENATVAHLVGALRSCQMNLVADLVQEVQ
chain 2: B1 chain

Columns and labels:
itself = variants of: B1; assay: flow-cytometric FRET (mCerulean3/mVenus) in live cells; conditions: with itself, RapoC2 (Fas-deficient Jurkat) cells, 24 h post-transfection, read off a plot
[1] = variants of: B2; assay: flow-cytometric FRET between Fas and FADD DD in live cells; conditions: with Cerulean3-tagged FADD containing only the death domain (FADD DD) [human], RapoC2 (Fas-deficient Jurkat) cells, read off a plot

Variant	screen value (itself; FasL-LZ 5 min, parent: 1.5)	screen value (itself; FasL-LZ 15 min, parent: 1.9)	screen value (itself; FasL-LZ 30 min, parent: 2)	screen value (itself; FasL-LZ 60 min, parent: 1.9)	screen value (itself; FasL-LZ 120 min, parent: 1.9)	screen value ([1]; FasL-LZ 5 min, parent: 1.3)	screen value ([1]; FasL-LZ 15 min, parent: 1.5)	screen value ([1]; FasL-LZ 30 min, parent: 1.7)	screen value ([1]; FasL-LZ 60 min, parent: 1.9)	screen value ([1]; FasL-LZ 120 min, parent: 1.9)
chain 1 A232D	1.3	1.5	1.6	1.6	1.6					
chain 1 C174V	1.5	1.9	2.1							
chain 1 E236K	1.3	1.5	1.6	1.6	1.6					
chain 2 A232D						1.1	1.1	1.1	1.1	1.1
chain 2 C174V						1.4	1.6	1.8	1.9	2
chain 2 E236K						1.1	1.1	1.1	1.1	1.1
